Laboratory results: article PMC9943068

Columns and labels:
[1] = target: hUSP7 residues 561-1102 (human) (UniProt Q93009); test: ITC; 20 µM USP7(561-1102) in the cell titrated with 1.2 mM PAF15 at 293 K; 10 mM HEPES pH 7.5, 150 mM NaCl, 0.25 mM TCEP; one-site model
DNMT1 (Homo sapiens) = DNMT1 (Homo sapiens) (UniProt P26358); settings: cited from earlier work
UniProt P26358, sequence (P26358 whole entry): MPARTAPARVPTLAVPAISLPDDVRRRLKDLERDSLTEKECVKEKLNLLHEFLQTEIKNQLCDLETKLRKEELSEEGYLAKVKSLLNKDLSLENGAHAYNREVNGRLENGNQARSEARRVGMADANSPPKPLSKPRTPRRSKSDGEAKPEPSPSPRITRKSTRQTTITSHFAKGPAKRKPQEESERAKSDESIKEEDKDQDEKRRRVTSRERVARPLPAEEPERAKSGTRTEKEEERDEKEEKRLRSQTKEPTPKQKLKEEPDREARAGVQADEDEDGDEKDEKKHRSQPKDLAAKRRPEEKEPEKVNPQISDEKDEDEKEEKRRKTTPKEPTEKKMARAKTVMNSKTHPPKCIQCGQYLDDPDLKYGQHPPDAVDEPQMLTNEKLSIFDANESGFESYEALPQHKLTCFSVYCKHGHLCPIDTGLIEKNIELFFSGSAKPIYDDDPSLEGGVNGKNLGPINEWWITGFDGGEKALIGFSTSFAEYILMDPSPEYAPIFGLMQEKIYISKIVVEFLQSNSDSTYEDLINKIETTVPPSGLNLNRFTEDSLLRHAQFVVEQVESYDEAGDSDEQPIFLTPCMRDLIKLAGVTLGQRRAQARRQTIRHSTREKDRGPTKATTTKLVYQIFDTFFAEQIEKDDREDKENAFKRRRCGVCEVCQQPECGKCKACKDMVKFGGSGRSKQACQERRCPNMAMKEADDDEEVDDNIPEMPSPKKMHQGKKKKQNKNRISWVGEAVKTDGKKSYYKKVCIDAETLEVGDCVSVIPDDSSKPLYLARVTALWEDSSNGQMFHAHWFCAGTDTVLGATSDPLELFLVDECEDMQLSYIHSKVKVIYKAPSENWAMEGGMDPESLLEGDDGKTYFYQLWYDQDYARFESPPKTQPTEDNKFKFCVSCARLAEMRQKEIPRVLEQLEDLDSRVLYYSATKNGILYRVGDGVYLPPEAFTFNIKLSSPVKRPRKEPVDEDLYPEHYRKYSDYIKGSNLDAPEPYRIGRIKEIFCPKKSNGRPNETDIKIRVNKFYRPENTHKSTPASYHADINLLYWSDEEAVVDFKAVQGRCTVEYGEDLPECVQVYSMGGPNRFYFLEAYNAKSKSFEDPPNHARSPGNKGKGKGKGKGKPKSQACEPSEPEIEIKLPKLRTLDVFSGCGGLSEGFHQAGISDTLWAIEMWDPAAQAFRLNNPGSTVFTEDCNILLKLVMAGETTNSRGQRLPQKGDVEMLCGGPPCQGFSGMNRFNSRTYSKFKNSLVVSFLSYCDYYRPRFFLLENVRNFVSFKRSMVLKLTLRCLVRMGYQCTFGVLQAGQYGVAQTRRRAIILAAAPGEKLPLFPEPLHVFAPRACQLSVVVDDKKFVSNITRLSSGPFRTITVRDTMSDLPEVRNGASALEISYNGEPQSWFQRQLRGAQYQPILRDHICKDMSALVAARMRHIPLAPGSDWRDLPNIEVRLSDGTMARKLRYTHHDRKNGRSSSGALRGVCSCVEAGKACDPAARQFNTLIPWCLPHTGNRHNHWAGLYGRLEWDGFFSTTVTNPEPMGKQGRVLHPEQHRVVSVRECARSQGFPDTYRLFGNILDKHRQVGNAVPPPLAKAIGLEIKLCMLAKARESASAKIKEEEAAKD

Kd [1] [µM] | Substance | Kd (DNMT1 (Homo sapiens)) [µM]
32.7 | full-length hPAF15 wild-type, C-terminal FLAG tag (from UniProt Q15004 1-111) (natural protein) | –
– | USP7 561-1102 (from UniProt Q93009) | 0.6
